Test results: patent US20090098112A1 (Genentech, published 2009)

How the values were obtained:
[1] = target: T1, recombinant human integrin α5β1 (R&D) (human, UniProt P08648 42-995; P05556 21-728); test: SPR (BIACORE-3000), human integrin α5β1 (R&D) immobilized on CM5 chip (about 800 RU), antibody injected 200 nM to 0.2 nM, 25 °C, 1:1 Langmuir fit
T1 construct: Bought recombinant heterodimer (R&D); It was used coated on plates and in solution in the phage ELISA, and as analyte or immobilized in BIAcore; also called alpha5beta1; a5b1
T1 sequence (P08648 42-995 limits assumed, chain 1 of 2): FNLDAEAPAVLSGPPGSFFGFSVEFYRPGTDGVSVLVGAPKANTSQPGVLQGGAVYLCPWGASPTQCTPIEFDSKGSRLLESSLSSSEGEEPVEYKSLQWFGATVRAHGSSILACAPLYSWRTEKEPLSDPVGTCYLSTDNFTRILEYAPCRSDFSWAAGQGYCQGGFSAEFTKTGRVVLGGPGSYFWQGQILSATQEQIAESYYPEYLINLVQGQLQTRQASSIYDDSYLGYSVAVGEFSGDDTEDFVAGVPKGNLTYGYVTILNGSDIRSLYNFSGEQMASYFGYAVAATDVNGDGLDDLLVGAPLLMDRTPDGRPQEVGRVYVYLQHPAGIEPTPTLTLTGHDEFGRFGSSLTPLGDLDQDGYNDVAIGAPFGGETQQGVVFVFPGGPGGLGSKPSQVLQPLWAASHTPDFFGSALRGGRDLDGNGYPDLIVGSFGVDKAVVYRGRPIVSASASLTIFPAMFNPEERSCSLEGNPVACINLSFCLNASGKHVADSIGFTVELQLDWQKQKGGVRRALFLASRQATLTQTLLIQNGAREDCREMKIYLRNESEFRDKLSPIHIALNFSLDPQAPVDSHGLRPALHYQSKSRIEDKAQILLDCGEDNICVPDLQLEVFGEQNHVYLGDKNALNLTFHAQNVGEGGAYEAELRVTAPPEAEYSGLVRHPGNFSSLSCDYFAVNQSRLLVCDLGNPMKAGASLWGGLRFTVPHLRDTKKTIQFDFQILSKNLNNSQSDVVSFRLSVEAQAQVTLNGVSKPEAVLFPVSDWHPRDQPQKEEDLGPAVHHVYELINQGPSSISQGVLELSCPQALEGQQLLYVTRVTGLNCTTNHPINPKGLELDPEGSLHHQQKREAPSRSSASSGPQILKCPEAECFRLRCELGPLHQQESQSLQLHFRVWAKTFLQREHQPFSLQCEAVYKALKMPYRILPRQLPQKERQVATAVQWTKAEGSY
T1 sequence (P05556 21-728 limits assumed, chain 2 of 2): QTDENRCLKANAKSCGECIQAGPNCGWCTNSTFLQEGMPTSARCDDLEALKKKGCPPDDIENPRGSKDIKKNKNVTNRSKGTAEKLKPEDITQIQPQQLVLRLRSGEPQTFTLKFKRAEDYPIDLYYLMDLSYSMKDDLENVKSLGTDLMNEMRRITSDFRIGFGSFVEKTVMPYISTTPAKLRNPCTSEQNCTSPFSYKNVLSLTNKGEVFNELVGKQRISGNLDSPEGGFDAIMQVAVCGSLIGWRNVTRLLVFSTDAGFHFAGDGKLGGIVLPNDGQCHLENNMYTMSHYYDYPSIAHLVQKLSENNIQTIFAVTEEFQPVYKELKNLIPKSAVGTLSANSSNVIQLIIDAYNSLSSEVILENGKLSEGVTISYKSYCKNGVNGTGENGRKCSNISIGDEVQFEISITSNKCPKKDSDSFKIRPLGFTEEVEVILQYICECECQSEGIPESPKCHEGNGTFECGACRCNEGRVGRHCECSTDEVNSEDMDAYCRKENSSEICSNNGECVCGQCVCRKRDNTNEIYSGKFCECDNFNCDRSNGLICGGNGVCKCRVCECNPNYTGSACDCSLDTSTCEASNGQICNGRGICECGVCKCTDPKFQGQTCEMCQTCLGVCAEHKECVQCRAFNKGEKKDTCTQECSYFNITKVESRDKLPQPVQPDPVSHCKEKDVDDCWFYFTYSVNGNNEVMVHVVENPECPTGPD
Experimental: (§1) FIG. 3 depicts the results of a BIACORE® analysis of chimeric 7H5-IgG and humanized 7H5.v1-IgG against human integrin α5β1.
(§2) Affinity determinations were performed by surface-plasmon resonance using a BIACORE™-3000 instrument. Immobilization was achieved by random coupling through amino groups using a protocol provided by the manufacturer. Two different formats were operated to study binding kinetics for antibody against human integrin α5β1. In FIGS. 3A, 7, and 9A, antibodies were immobilized on a CM5 sensor chip around 450 response units (RU), and 2-fold serial diluted concentrations of human integrin α5β1 (300 nM to 0.29 nM) in PBT buffer (0.05% Tween 20 in PBS) were injected with a flow rate of 30 μl/min at 25° C. In FIGS. 3B and 9B, human integrin […] was immobilized on a CM5 sensor chip around 800 RU, and 2-fold serial diluted concentrations of antibodies (200 nM to 0.2 nM) in PBT buffer (0.05% Tween 20 in PBS) were injected with a flow rate of 30 μl/min at 25° C. After each injection, the chip was regenerated using 10 mM Glycine-HCl buffer at pH 1.7. Binding response was corrected by subtracting the RU from a blank flow cell. Association rates (kₒₙ) and dissociation rates (koff) were calculated using a simple one-to-one Langmuir binding model (BIAcore Evaluation Software version 3.2). The equilibrium dissociation constant (Kd) was calculated as the ratio koff/kₒₙ.

[2] = target: T1, recombinant human integrin α5β1 (R&D); test: SPR (BIACORE-3000), antibody immobilized on CM5 chip (about 450 RU), human integrin α5β1 injected 300 nM to 0.29 nM, 25 °C, 1:1 Langmuir fit
Experimental: as §1, §2

[3] = target: T1, recombinant human integrin α5β1 (R&D); test: as above; remark: listed apart in the source
Experimental: FIG. 7 depicts the results of a BIACORE® analysis of humanized 7H5.v1, v2 and v3-IgG against human integrin α5β1. […] Humanized 7H5.v2 indicates the most binding affinity improvement in off-rate.
as §2

Kd [1]: 0.23 nM | koff [1]: 0.0002 s⁻¹ | kon [1]: 870000 M⁻¹ s⁻¹ | Kd [2]: 3.67 nM | koff [2]: 0.00018 s⁻¹ | kon [2]: 49000 M⁻¹ s⁻¹ | Kd [3]: 1.91 nM | koff [3]: 8.2e-05 s⁻¹ | kon [3]: 43000 M⁻¹ s⁻¹
B1: h7H5.v1 (antibody, human IgG1, V domains shown)
VH: EVQLVESGGGLVQPGGSLRLSCAASGYTFTDYYLYWVRQAPGKGLEWIGGISPSNGGTTFNDNFENKATLSVDKSKNTAYLQMNSLRAEDTAVYYCTRDAYGDWYFDVWGQGT
VL: DIQMTQSPSSLSASVGDRVTITCKASQNVGSDVAWYQQKPGKAPKTLIYSTSYRYSGVPSRFSGSGSGTDFTLTISSLQPEDFATYYCQQYNSYPFTFGQGTKVEIKR
notes: CDR graft of murine 7H5, as human IgG1; also called humanized 7H5.v1-IgG
